Measurements taken from publication PMC3295763 (PLoS ONE, 2012).

B1: sdAb B12 (VHH)
VHH: DVQLQASGGGLAQPGGSLRLSCVASGSVSRLSRMGWYRQAPGKQRELVAYIWHDGDNSYMDSVKGRFTISRDNARDTAYLQMNSLKPEDTAVYYCNYYRVGSGDSWGQGIQVIVSS
notes: source: E. coli Rosetta, periplasmic (pECAN45), purified (IMAC, Superdex 75)
B2: sdAb G10 (VHH)
VHH: DVQLQASGGGLVQPGGSLKLSCVASGSTFSPDMMRWYRQAPGKQRDLVAWISTSGFTMYADSVKGRFTISRDNAKNTVYLQMNSLKPEDAAVYYCNANRFSGPDYWGQGMQVSVSS
notes: as for B1
B3: sdAb A1 (VHH)
VHH: DVQLQASGGGLVQAGGSLELSCVVVGESIIDYQMAWFRQMVGREREFVAAITGDSHYSDYSASASGRFTISRDNAKKTVSLQMNHLKPEDTALYYCAARKGFGINRLSTAFDYWGHGTQVTVSS
notes: as for B1
B4: sdAb B2 (VHH)
VHH: EVQLQASGGGLVQAGGSLRLSCAASGHINIHYAMGWFRRAPGKEREFVAAVTWSGASTYYADSVKGRFTISRDNGGNTMFLQLDSLKPEDTATYYCAAQGALGRLTSASGYDYWGQGTQVTVSS
notes: as for B1
B5: sdAb C7 (VHH)
VHH: EVQLQASGGGLVQPGGSLNLSCAASGEILSFNSMGWYRQAPGKQCELVAVILSGFSPNYADSVKGRFTISRDGAKNTVFLRMNRLKPEDTADYYCAARFYGAIRDEQSVNYWGQGTRVTVSS
notes: as for B1

What follows are binders tested against S-layer protein EA1 (Bacillus anthracis Sterne, UniProt P94217) (assay: SPR; […] (5 µg/ml in 10 mM sodium acetate pH 4.0); […], dissociation 10 min; […]). Conditions: both partners purified.

Binder | Kd [nM] | koff [s⁻¹] | kon [M⁻¹ s⁻¹]
B1 | 6.18 | 0.0015 | 242000
B2 | 2.04 | 0.000166 | 81100
B3 | 0.305 | 0.000233 | 766000
B4 | 6.17 | 0.00037 | 60000
B5 | 1.57 | 0.000248 | 158000
